Tests used:
Test in all cases: cell-based or functional assay
[1] = biological target: HIV-1 93WR029 Env (HIV-1)
[2] = biological target: HIV-1 MGRM-A-004 Env (HIV-1)
[3] = biological target: HIV-1 MGRM-AG-002 Env (HIV-1)
[4] = biological target: HIV-1 MGRM-AG-003 Env (HIV-1)
[5] = biological target: HIV-1 92WR026 Env (HIV-1)
[6] = biological target: HIV-1 MGRM-A-010 Env (HIV-1)
[7] = biological target: HIV-1 92UG037 Env (HIV-1)
[8] = biological target: HIV-1 92RW008 Env (HIV-1)
[9] = biological target: HIV-1 MGRM-AG-005 Env (HIV-1)
[10] = biological target: HIV-1 MGRM-A-001 Env (HIV-1)
[11] = biological target: HIV-1 94UG103 Env (HIV-1)
[12] = biological target: HIV-1 92WR021 Env (HIV-1)
[13] = biological target: HIV-1 MGRM-AE-003 Env (HIV-1)
HIV-1 VLGCA1 Env (HIV-1) = biological target: HIV-1 VLGCA1 Env (HIV-1)
[14] = biological target: HIV-1 MGRM-A-006 Env (HIV-1)
[15] = biological target: HIV-1 MGRM-A-003 Env (HIV-1)
[16] = biological target: HIV-1 MGRM-AG-008 Env (HIV-1)
[17] = biological target: HIV-1 92WR020 Env (HIV-1)
[18] = biological target: HIV-1 MGRM-A-009 Env (HIV-1)
[19] = biological target: HIV-1 MGRM-A-002 Env (HIV-1)
[20] = biological target: HIV-1 MGRM-A-008 Env (HIV-1)
[21] = biological target: HIV-1 MGRM-AE-005 Env (HIV-1)
[22] = biological target: HIV-1 MGRM-AE-002 Env (HIV-1)
[23] = biological target: HIV-1 MGRM-AG-012 Env (HIV-1)
[24] = biological target: HIV-1 MGRM-AG-011 Env (HIV-1)
[25] = biological target: HIV-1 MGRM-A-012 Env (HIV-1)
[26] = biological target: HIV-1 MGRM-AG-006 Env (HIV-1)
[27] = biological target: HIV-1 MGRM-AG-013 Env (HIV-1)
[28] = biological target: HIV-1 MGRM-AE-007 Env (HIV-1)
[29] = biological target: HIV-1 MGRM-AE-004 Env (HIV-1)
[30] = biological target: HIV-1 MGRM-A-014 Env (HIV-1)
[31] = biological target: HIV-1 92TH021 Env (HIV-1)
[32] = biological target: HIV-1 MGRM-AE-008 Env (HIV-1)
[33] = biological target: HIV-1 MGRM-AE-001 Env (HIV-1)
[34] = biological target: HIV-1 MGRM-A-013 Env (HIV-1)
[35] = biological target: HIV-1 MGRM-A-005 Env (HIV-1)
[36] = biological target: HIV-1 MGRM-AE-006 Env (HIV-1)
HIV-1 CMU02 Env (HIV-1) = biological target: HIV-1 CMU02 Env (HIV-1)
[37] = biological target: HIV-1 MGRM-AG-009 Env (HIV-1)
[38] = biological target: HIV-1 MGRM-AG-001 Env (HIV-1)
[39] = biological target: HIV-1 92WR009 Env (HIV-1)
[40] = biological target: HIV-1 MGRM-A-007 Env (HIV-1)
[41] = biological target: HIV-1 94KE105 Env (HIV-1)
[42] = biological target: HIV-1 92UG031 Env (HIV-1)
[43] = biological target: HIV-1 MGRM-A-011 Env (HIV-1)
[44] = biological target: HIV-1 93UG077 Env (HIV-1)
[45] = biological target: HIV-1 92WR024 Env (HIV-1)

Substance: 4858_P08 (PGT-123) (antibody)
- IC50 [1]: > 50 mg/L
- IC50 [2]: > 50 mg/L
- IC50 [3]: > 50 mg/L
- IC50 [4]: > 50 mg/L
- IC50 [5]: 0.012 mg/L
- IC50 [6]: 0.705 mg/L
- IC50 [7]: 0.023 mg/L
- IC50 [8]: 0.003 mg/L
- IC50 [9]: 0.149 mg/L
- IC50 [10]: > 50 mg/L
- IC50 [11]: 0.678 mg/L
- IC50 [12]: 0.005 mg/L
- IC50 [13]: > 50 mg/L
- IC50 (HIV-1 VLGCA1 Env (HIV-1)): > 50 mg/L
- IC50 [14]: > 50 mg/L
- IC50 [15]: 0.495 mg/L
- IC50 [16]: 19.2 mg/L
- IC50 [17]: 0.002 mg/L
- IC50 [18]: 0.004 mg/L
- IC50 [19]: 0.011 mg/L
- IC50 [20]: > 50 mg/L
- IC50 [21]: > 50 mg/L
- IC50 [22]: > 50 mg/L
- IC50 [23]: > 50 mg/L
- IC50 [24]: > 50 mg/L
- IC50 [25]: 0.192 mg/L
- IC50 [26]: 0.014 mg/L
- IC50 [27]: 3.37 mg/L
- IC50 [28]: > 50 mg/L
- IC50 [29]: > 50 mg/L
- IC50 [30]: 0.003 mg/L
- IC50 [31]: > 50 mg/L
- IC50 [32]: > 50 mg/L
- IC50 [33]: > 50 mg/L
- IC50 [34]: 0.565 mg/L
- IC50 [35]: > 50 mg/L
- IC50 [36]: > 50 mg/L
- IC50 (HIV-1 CMU02 Env (HIV-1)): > 50 mg/L
- IC50 [37]: 0.073 mg/L
- IC50 [38]: 2.51 mg/L
- IC50 [39]: 15.7 mg/L
- IC50 [40]: > 50 mg/L
- IC50 [41]: 0.024 mg/L
- IC50 [42]: > 50 mg/L
- IC50 [43]: > 50 mg/L
- IC50 [44]: 0.028 mg/L
- IC50 [45]: > 50 mg/L

Substance: 5141_B17 (PGT-126) (antibody)
- IC50 [1]: > 50 mg/L
- IC50 [2]: > 50 mg/L
- IC50 [3]: > 50 mg/L
- IC50 [4]: > 50 mg/L
- IC50 [5]: 0.008 mg/L
- IC50 [6]: 0.002 mg/L
- IC50 [7]: 0.011 mg/L
- IC50 [8]: 0.008 mg/L
- IC50 [9]: 1.21 mg/L
- IC50 [10]: > 50 mg/L
- IC50 [11]: 0.008 mg/L
- IC50 [12]: 0.006 mg/L
- IC50 [13]: > 50 mg/L
- IC50 (HIV-1 VLGCA1 Env (HIV-1)): > 50 mg/L
- IC50 [14]: > 50 mg/L
- IC50 [15]: > 50 mg/L
- IC50 [16]: > 50 mg/L
- IC50 [17]: 0.006 mg/L
- IC50 [18]: 0.004 mg/L
- IC50 [19]: 0.015 mg/L
- IC50 [20]: > 50 mg/L
- IC50 [21]: 0.324 mg/L
- IC50 [22]: > 50 mg/L
- IC50 [23]: > 50 mg/L
- IC50 [24]: 24.5 mg/L
- IC50 [25]: 0.097 mg/L
- IC50 [26]: 0.01 mg/L
- IC50 [27]: 0.008 mg/L
- IC50 [28]: > 50 mg/L
- IC50 [29]: > 50 mg/L
- IC50 [30]: 0.01 mg/L
- IC50 [31]: 0.197 mg/L
- IC50 [32]: > 50 mg/L
- IC50 [33]: 9.68 mg/L
- IC50 [34]: 0.006 mg/L
- IC50 [35]: > 50 mg/L
- IC50 [36]: 17.3 mg/L
- IC50 (HIV-1 CMU02 Env (HIV-1)): > 50 mg/L
- IC50 [37]: 0.03 mg/L
- IC50 [38]: > 50 mg/L
- IC50 [39]: > 50 mg/L
- IC50 [40]: > 50 mg/L
- IC50 [41]: 0.006 mg/L
- IC50 [42]: > 50 mg/L
- IC50 [43]: > 50 mg/L
- IC50 [44]: 0.02 mg/L
- IC50 [45]: 42 mg/L

Substance: 5145_B14 (PGT-127) (antibody)
- IC50 [1]: > 50 mg/L
- IC50 [2]: > 50 mg/L
- IC50 [3]: > 50 mg/L
- IC50 [4]: > 50 mg/L
- IC50 [5]: 0.024 mg/L
- IC50 [6]: 0.017 mg/L
- IC50 [7]: 0.014 mg/L
- IC50 [8]: 0.012 mg/L
- IC50 [9]: > 50 mg/L
- IC50 [10]: > 50 mg/L
- IC50 [11]: 0.017 mg/L
- IC50 [12]: 0.011 mg/L
- IC50 [13]: > 50 mg/L
- IC50 (HIV-1 VLGCA1 Env (HIV-1)): > 50 mg/L
- IC50 [14]: > 50 mg/L
- IC50 [15]: > 50 mg/L
- IC50 [16]: > 50 mg/L
- IC50 [17]: 0.01 mg/L
- IC50 [18]: 0.013 mg/L
- IC50 [19]: 9.42 mg/L
- IC50 [20]: > 50 mg/L
- IC50 [21]: > 50 mg/L
- IC50 [22]: > 50 mg/L
- IC50 [23]: > 50 mg/L
- IC50 [24]: > 50 mg/L
- IC50 [25]: 0.105 mg/L
- IC50 [26]: 0.021 mg/L
- IC50 [27]: 0.018 mg/L
- IC50 [28]: > 50 mg/L
- IC50 [29]: > 50 mg/L
- IC50 [30]: 0.24 mg/L
- IC50 [31]: > 50 mg/L
- IC50 [32]: > 50 mg/L
- IC50 [33]: > 50 mg/L
- IC50 [34]: 0.029 mg/L
- IC50 [35]: > 50 mg/L
- IC50 [36]: > 50 mg/L
- IC50 (HIV-1 CMU02 Env (HIV-1)): > 50 mg/L
- IC50 [37]: 0.059 mg/L
- IC50 [38]: > 50 mg/L
- IC50 [39]: > 50 mg/L
- IC50 [40]: > 50 mg/L
- IC50 [41]: 0.023 mg/L
- IC50 [42]: > 50 mg/L
- IC50 [43]: > 50 mg/L
- IC50 [44]: 0.055 mg/L
- IC50 [45]: > 50 mg/L

Substance: 4838_L06 (PGT-121) (antibody)
- IC50 [1]: > 50 mg/L
- IC50 [2]: > 50 mg/L
- IC50 [3]: > 50 mg/L
- IC50 [6]: 2.44 mg/L
- IC50 [7]: 0.031 mg/L
- IC50 [8]: 0.003 mg/L
- IC50 [10]: > 50 mg/L
- IC50 [11]: 2.52 mg/L
- IC50 [12]: 0.009 mg/L
- IC50 [13]: > 50 mg/L
- IC50 (HIV-1 VLGCA1 Env (HIV-1)): > 50 mg/L
- IC50 [14]: 0.396 mg/L
- IC50 [15]: 0.435 mg/L
- IC50 [17]: 0.004 mg/L
- IC50 [18]: 0.006 mg/L
- IC50 [20]: > 50 mg/L
- IC50 [21]: > 50 mg/L
- IC50 [22]: > 50 mg/L
- IC50 [23]: > 50 mg/L
- IC50 [24]: > 50 mg/L
- IC50 [25]: 0.092 mg/L
- IC50 [28]: > 50 mg/L
- IC50 [29]: > 50 mg/L
- IC50 [30]: 0.003 mg/L
- IC50 [31]: > 50 mg/L
- IC50 [32]: > 50 mg/L
- IC50 [33]: > 50 mg/L
- IC50 [34]: 0.387 mg/L
- IC50 [35]: > 50 mg/L
- IC50 [36]: > 50 mg/L
- IC50 (HIV-1 CMU02 Env (HIV-1)): > 50 mg/L
- IC50 [37]: 0.08 mg/L
- IC50 [39]: 1.74 mg/L
- IC50 [40]: > 50 mg/L
- IC50 [41]: 0.029 mg/L
- IC50 [42]: > 50 mg/L
- IC50 [43]: > 50 mg/L
- IC50 [44]: 0.019 mg/L
- IC50 [45]: > 50 mg/L

Reference: patent publication US20160264649A1
